Holding throughout (details): both partners purified
The target of one assay is T1, SS18^(14-101) (human, UniProt Q15532 14-101).
T1 construct: SS18, human, residues 14-101, includes the SNH domain; also called SS18 fragment aa 14-101 (includes the SNH domain); source: E. coli BL21(DE3) Codon Plus, purified
The experiment in a line: AUC; sedimentation velocity, 4 °C, interference detection, 50 mM MES pH 6.0, 50 mM NaCl, 1 mM EDTA, 1 mM DTT; SEDFIT.

Assay [1] concerns the target T2, Human SS18 (residues 1-387), purified recombinant (human, UniProt Q15532-2 1-387).
T2 construct: The MBP-his6 vector is told for the proteins studied in phase separation; also called SS18^(1-387); SS18-WT; source: E. coli BL21(DE3) Codon Plus, purified (Ni-NTA, SEC)
Briefly: SEC; purified human proteins or fragments run together on a size-exclusion column; coelution, fractions on SDS-PAGE.

The target of the next assay is T3, SNF11^(38-169) (S. cerevisiae, UniProt P38956 38-169).
T3 construct: Cloned into one of the two multiple cloning sites of pETDuet-1
T3 sequence (looked up): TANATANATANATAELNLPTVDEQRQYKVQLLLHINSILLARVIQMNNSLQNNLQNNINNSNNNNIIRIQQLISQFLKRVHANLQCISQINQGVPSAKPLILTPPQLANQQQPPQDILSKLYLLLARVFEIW
The experiment in a line: AUC; sedimentation velocity, 4 °C, interference detection, 50 mM MES pH 6.0, 50 mM NaCl, 1 mM EDTA, 1 mM DTT; SEDFIT.

T2 sequence (Q15532 other isoform, or with tags, fused parts or gaps): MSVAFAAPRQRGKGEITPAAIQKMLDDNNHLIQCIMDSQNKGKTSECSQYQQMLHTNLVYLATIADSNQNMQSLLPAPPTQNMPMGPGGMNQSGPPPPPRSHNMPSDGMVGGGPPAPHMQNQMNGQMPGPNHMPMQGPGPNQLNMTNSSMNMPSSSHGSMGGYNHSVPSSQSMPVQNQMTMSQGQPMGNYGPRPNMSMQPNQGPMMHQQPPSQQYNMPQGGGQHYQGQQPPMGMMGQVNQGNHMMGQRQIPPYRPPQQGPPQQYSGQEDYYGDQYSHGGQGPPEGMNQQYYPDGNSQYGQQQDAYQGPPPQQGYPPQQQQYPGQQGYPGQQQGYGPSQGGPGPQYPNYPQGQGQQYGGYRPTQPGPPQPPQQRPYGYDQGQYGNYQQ
T1 sequence (Q15532 14-101): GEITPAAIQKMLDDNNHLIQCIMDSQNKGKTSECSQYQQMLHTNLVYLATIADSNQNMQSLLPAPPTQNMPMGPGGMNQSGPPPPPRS

B1: BRG1^(172-213) (domain or fragment, human, UniProt P51532 172-213, looked up)
chain: FNQNQLHQLRAQIMAYKMLARGQPLPDHLQMAVQGKRPMPGM
notes: In the crystal it stood fused to SS18^(14-101) on one chain; source: E. coli BL21(DE3) Codon Plus, purified
For B1, the stoichiometry N (as a rule, a count of units in the complex or per binding partner) with SS18^(14-101) turned out to be 1.

B2: BRG1^(1-282), N-terminal 282-residue fragment of BRG1 (domain or fragment, human, UniProt P51532 1-282, looked up)
chain: MSTPDPPLGGTPRPGPSPGPGPSPGAMLGPSPGPSPGSAHSMMGPSPGPPSAGHPIPTQGPGGYPQDNMHQMHKPMESMHEKGMSDDPRYNQMKGMGMRSGGHAGMGPPPSPMDQHSQGYPSPLGGSEHASSPVPASGPSSGPQMSSGPGGAPLDGADPQALGQQNRGPTPFNQNQLHQLRAQIMAYKMLARGQPLPDHLQMAVQGKRPMPGMQQQMPTLPPPSVSATGPGPGPGPGPGPGPGPAPPNYSRPHGMGGPNMPPPGPSGVPPGMPGQPPGGPPK
notes: Cloned into a modified pET32a (Trx-his6, N-terminal); the methods describe PreScission cleavage of the Trx-his6 tag in general; Cy3-labelled only for imaging; source: E. coli BL21(DE3) Codon Plus, purified (Ni-NTA, SEC, ion exchange); not shown: Trx, N-terminal, cleaved; His6, N-terminal, cleaved
Consider B2, for which, in assay [1], the binding result was “binds”.

B3: SNF2^(248-308), 60-residue fragment including the QLQ domain of SNF2 (domain or fragment, S. cerevisiae, UniProt P22082 248-308, looked up)
chain: FTAEQSELLKAQITSLKCLVNRKPIPFEFQAVIQKSINHPPDFKRMLLSLSEFARRRQPTD
notes: Cloned into one of the two multiple cloning sites of pETDuet-1
In the case of B3, in the assay with SNF11^(38-169), the “stoichiometry N” value turned out to be 1.

The values above are taken from paper PMC9117659, “Phase transition and remodeling complex assembly are important for SS18-SSX oncogenic activity in synovial sarcomas” (Nature Communications, 2022).
